This experiment deals with Ld class I MHC molecule of the mouse, properly folded form detected by mAb 30-5-7 (mouse). As to the kind of experiment: radioligand binding + co-IP.
Chain of Ld class I MHC molecule of the mouse, properly folded form detected by mAb 30-5-7 (mouse) (P01897 25-362): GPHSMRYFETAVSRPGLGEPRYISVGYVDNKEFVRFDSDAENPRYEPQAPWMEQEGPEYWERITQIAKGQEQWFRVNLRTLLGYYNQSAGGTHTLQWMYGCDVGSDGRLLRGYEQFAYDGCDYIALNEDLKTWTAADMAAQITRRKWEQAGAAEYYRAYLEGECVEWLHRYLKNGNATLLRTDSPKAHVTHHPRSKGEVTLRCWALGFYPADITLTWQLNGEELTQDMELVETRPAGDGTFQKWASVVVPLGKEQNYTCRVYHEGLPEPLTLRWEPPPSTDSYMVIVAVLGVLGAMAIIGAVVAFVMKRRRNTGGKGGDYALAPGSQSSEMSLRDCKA

As for murine CMV peptide (pp89, 168-176), the percent of the FCS control (cells in serum-free medium during the 4 h assay) is 85% and the percent of the surface plus lysate peptide binding accounted for by surface Ld turned out to be 80%.

The values are drawn from PMC2119095.
